Experiment [1] addresses IGF-1 G1S-A70V displayed on phage (human; bacteriophage M13). Briefly: competitive phage ELISA: phage on an IGFBP-3-coated plate (1 µg/ml), competed by soluble IGFBP-3; OD492, mean ± SD, n=2. For orientation: In an ELISA, binding on a coated surface is turned into a signal by an enzyme label.
Experiment [2] has the same target. Briefly: competitive phage ELISA: phage displaying G1S-A70V IGF-1 on an IGFBP-3-coated plate (1 µg/ml), competed by soluble IGFBP-3; OD492.
Experiment [3] deals with T1, recombinant human IGFBP-3 (human, UniProt P17936 28-291). Kind of experiment: phage ELISA (IGF-blocking phage assay): titration of g8 peptide-phage on an IGFBP-3-coated plate in the presence of 100 nM IGF-1; OD492. The procedure:
(§1) The plates were then washed ten times, as above, and a solution of rabbit anti-phage antibody mixed with a goat-anti-rabbit conjugate of horseradish peroxidase was added. After an incubation of 1 hour at room temperature, the plates were developed with a chromogenic substrate, o-phenylenediamine (Sigma). The reaction was stopped with addition of ½ volume of 2.5 M H₂SO₄. Optical density at 490 nm was measured on a spectrophotometric plate reader.

Experiment [4] concerns the target IGF-1 G1S-A70V displayed on phage (human; bacteriophage M13). Briefly: competitive phage ELISA: phage on an IGFBP-3-coated plate (1 µg/ml), competed by soluble IGFBP-1; OD492, mean ± SD, n=2.
The target is the same in experiment [5]. Kind of experiment: competitive phage ELISA: phage displaying G1S-A70V IGF-1 on an IGFBP-1-coated plate (1 µg/ml), competed by soluble IGFBP-1; OD492.
The target in experiment [6] is T1, recombinant human IGFBP-3. Kind of experiment: BIAcore competition, IGFBP-3 to immobilized IGF-2. The procedure:
IGF-2 was immobilized on a dextran chip for inhibition assays using a BIACORE™ 2000 surface-plasmon-resonance device (BIAcore, Inc., Piscataway, N.J.) to measure free binding protein. IGF-2 was biotinylated as described above, and injected over a chip to which streptavidin had been coupled (BIAcore, Inc.) to give approximately 1500 RU of immobilized IGF-2. […] After incubation for >1 hour at room temperature, an aliquot of […] was injected at a flow rate of […] over the IGF-2 chip.
A general note: Surface plasmon resonance follows binding to a sensor surface in real time, without labels.

The target of experiment [7] is T1, recombinant human IGFBP-3. Briefly: BIAcore competition, IGFBP-3 to immobilized IGF-1. The procedure:
IGF-1 was immobilized on a dextran chip for inhibition assays using a BIACORE™ 2000 surface-plasmon-resonance device (BIAcore, Inc., Piscataway, N.J.) to measure free binding protein. IGF-1 was biotinylated as described above, and injected over a chip to which streptavidin had been coupled (BIAcore, Inc.) to give 400 to 800 RU (response units) of immobilized IGF-1. […] After incubation for >1 hour at room temperature, an aliquot of 20:L was injected at a flow rate of 20:L/min over the IGF-1 chip. […]

The target in experiment [8] is T2, human IGFBP-1 (human, UniProt P08833 26-259).
T2 sequence (looked up): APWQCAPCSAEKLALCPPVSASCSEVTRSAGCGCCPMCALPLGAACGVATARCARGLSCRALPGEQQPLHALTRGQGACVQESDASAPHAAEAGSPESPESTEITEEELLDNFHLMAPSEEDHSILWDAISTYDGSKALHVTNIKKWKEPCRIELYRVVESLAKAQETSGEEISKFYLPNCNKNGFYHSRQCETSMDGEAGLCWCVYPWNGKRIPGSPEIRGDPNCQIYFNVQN
Briefly: BIAcore, IGFBP-1 coupled to chip.

In experiment [9] the target is T2, human IGFBP-1. Kind of experiment: BIAcore kinetics, IGFBP-1 coupled to chip. The procedure: For each dilution of peptides, a global fit of the sensorgram data was performed using a 1:1 Langmuir binding model.
Experiment [10] addresses T1, recombinant human IGFBP-3. Kind of experiment: BIAcore competition, IGFBP-3 to IGF-1.
In experiment [11] the target is T1, recombinant human IGFBP-3. Briefly: BIAcore competition, IGFBP-3 to IGF-1. The procedure: IGF-1 was immobilized on a dextran chip for inhibition assays using a BIACORE™ 2000 surface-plasmon-resonance device (BIAcore, Inc., Piscataway, N.J.) to measure free binding protein. IGF-1 was biotinylated as described above, and injected over a chip to which streptavidin had been coupled (BIAcore, Inc.) to give 400 to 800 RU (response units) of immobilized IGF-1. […] After incubation for >1 hour at room temperature, an aliquot of 20:L was injected at a flow rate of 20:L/min over the IGF-1 chip.
The source holds these as a separate data set.

Experiment [12] has as its target T1, recombinant human IGFBP-3. Kind of experiment: phage ELISA on IGFBP-3 plate, competitor IGF-1.
The target in experiment [13] is T1, recombinant human IGFBP-3. Kind of experiment: phage ELISA (IGF-blocking phage assay): g8 peptide-phage at a 50-fold dilution on an IGFBP-3-coated plate, without and with IGF-1; OD492. The procedure:
as §1
In each case, the phagemid clone was grown from a single colony overnight at 37° C. in a culture volume of 5 ml. The phage particles were precipitated and resuspended in 0.5 ml of PBS buffer.

Experiment [14] addresses T1, recombinant human IGFBP-3. Briefly: phage ELISA: titration of g8 peptide-phage on an IGFBP-3-coated plate without IGF-1; OD492. The procedure: as §1
In experiment [15] the target is T2, human IGFBP-1. Briefly: ELISA inhibition assay.

Data on 22 molecules can be found in patent publication US20090011988A1 (Genentech, published 2009).

Positions of bridges follow the written chain, without caps; N, C: chain ends. No end group written: not given here. suc = not defined here

Usually IC50 stands for the concentration needed to halve the response being measured. One may read the koff as the rate constant with which the complex falls apart. A lower koff goes with a long-lived complex. By kon is commonly meant a measure of how fast the partners come together. Low values mean slow association, high ones fast association. As a reminder, the Kd is the free concentration of one partner at which half of the binding sites on the other are occupied at equilibrium, for simple one-to-one binding. Low values mean higher affinity, high ones lower affinity.

T1 sequence (P17936 28-291 limits assumed): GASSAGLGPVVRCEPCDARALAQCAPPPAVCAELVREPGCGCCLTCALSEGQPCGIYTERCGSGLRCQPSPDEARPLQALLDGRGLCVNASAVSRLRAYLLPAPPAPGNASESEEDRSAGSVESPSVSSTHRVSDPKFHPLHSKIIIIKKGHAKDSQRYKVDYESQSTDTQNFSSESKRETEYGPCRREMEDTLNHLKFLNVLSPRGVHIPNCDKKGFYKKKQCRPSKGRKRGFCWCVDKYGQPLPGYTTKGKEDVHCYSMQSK

“recombinant human IGFBP-3 (from UniProt P17936 28-291)” registered an IC50 (read off the curve) in experiment [1] of 0.7 nM. In addition, in experiment [2], the IC50 was 0.5 nM.

B1: peptide-phage clone 4A3.1 (g8 display) (peptide, not shown: large carriers)
chain: SGTACYGGPEWWCCSLAGSP
modifications: not fully specified (bridges); also: displayed on M13 g8p phage, disulfide pairing of the three Cys not given here
notes: polyvalent display on M13 phage
Turning to B1, the binding result in experiment [3] is on record as “binds”.

B2: human IGFBP-1 (protein, UniProt P08833 26-259, looked up)
chain: APWQCAPCSAEKLALCPPVSASCSEVTRSAGCGCCPMCALPLGAACGVATARCARGLSCRALPGEQQPLHALTRGQGACVQESDASAPHAAEAGSPESPESTEITEEELLDNFHLMAPSEEDHSILWDAISTYDGSKALHVTNIKKWKEPCRIELYRVVESLAKAQETSGEEISKFYLPNCNKNGFYHSRQCETSMDGEAGLCWCVYPWNGKRIPGSPEIRGDPNCQIYFNVQN
Molecule B2 returned an IC50 (read off the curve) in experiment [4] of 8 nM. In addition, the IC50 in [5] was determined as 8.5 nM.

B3: BP3-17 (peptide)
peptide: VCWPVAEWYLCN
modifications: disulfide 2-11
For B3, the IC50 is 5100 nM in experiment [6] and 9000 nM in experiment [7].

B4: BP1-02 (peptide)
peptide: SEVGCRAGPLQWLCEKYFG
modifications: disulfide 5-14
Take B4: in the experiment with human IGFBP-1 [8], the “half-life for peptide dissociation” value is around 28 s, the koff amounted to 0.0503 s⁻¹ and the kon was 230000 M⁻¹ s⁻¹. The Kd with human IGFBP-1 [9] is 210 nM.

B5: BP3-107 (peptide)
peptide: suc-CQLVRPDLLLCQ-NH2
modifications: disulfide 1-11; reading uncertain
notes: also called phage parent t4H3.6
For the molecule B5, the IC50 in experiment [10] worked out at 100000 nM.

B6: peptide-phage clone 4D3.3 (g8 display) (peptide, not shown: large carriers)
chain: SEEVCWPVAEWYLCNMWGR
modifications: not fully specified (bridges); cysteine pairing not given here; also: polyvalent display on M13 phage, fused via linker to g8p
notes: as for B1
Regarding B6, in experiment [3], the binding result is on record as “binds”.

B7: BP3-15 (peptide)
peptide: SEEVCWPVAEWYLCN
modifications: disulfide 5-14
Turning to B7, the IC50 is 720 nM in experiment [11], 780 nM in experiment [6] and 750 nM in [7].

B8: peptide-phage clone 4D3.11 (g8 display) (peptide, not shown: large carriers)
chain: VAWEVCWDRHDQGYICTTDS
notes: as for B1
On to B8, for which the “% inhibition of phage binding by 100 nM IGF-1” value (“% inhibition of phage binding” below) in [12] came to 5%.

B9: BP3-01-ox (peptide)
peptide: SEEVCWPVAEWYLCNMWG
modifications: disulfide 5-14
With B9, the IC50 in experiment [11] amounted to 2000 nM; in experiment [6] it was 920 nM; in experiment [7], 2000 nM.

B10: 4D3.8 (peptide)
peptide displayed on M13 phage as a fusion to g8p: SEEVCWPVAEWYLCNILGP
modifications: not fully specified (bridges); cysteine pairing not given here; also: displayed on phage as g8p fusion
notes: whole phage particle in the assay; also called peptide-phage clone 4D3.8 (g8 display)
Regarding B10, the binding result in experiment [13] is reported as “binds”.

B11: peptide-phage clone 4D3.5 (g8 display) (peptide, not shown: large carriers)
chain: WFKTVCYEWEDEVQCYTLEE
modifications: not fully specified (bridges); cysteine pairing not given here; also: polyvalent display on M13 phage, fused via linker to g8p
notes: as for B1
Consider B11, for which, in [14], the binding result is “binds”.

B12: 4D3.12 (peptide)
peptide displayed on M13 phage as a fusion to g8p: AEWAECWIAGDQLLCVGKDN
modifications: not fully specified (bridges); cysteine pairing not given here; also: displayed on phage as g8p fusion
notes: whole phage particle in the assay; also called peptide-phage clone 4D3.12 (g8 display)
As for B12, the binding result in experiment [13] is recorded as “binds”.

B13: peptide-phage clone 4D3.4 (g8 display) (peptide, not shown: large carriers)
chain: RVGAYISCSETECWVEDLLD
modifications: not fully specified (bridges); cysteine pairing not given here; also: polyvalent display on M13 phage, fused via linker to g8p
notes: as for B1
Regarding B13, in experiment [14], the binding result is listed as “binds”.

B14: BP1-26 (peptide)
peptide: CRAGPLQWRCEKYF
modifications: disulfide 1-10
notes: also called BP1-16 L9R
In the case of B14, the binding result in the experiment with human IGFBP-1 [15] was “no binding (tested: >570-fold the IC50 of BP1-16)”.

B15: BP1-32 (peptide)
peptide: CRAGPRQWLCEKYF
modifications: disulfide 1-10
notes: also called BP1-16 L6R
Regarding B15, in the experiment with human IGFBP-1 [15], the binding result was “no binding (tested: >1000-fold the IC50 of BP1-16)”.

B16: peptide-phage clone 23A3.3 (g8 display) (peptide, not shown: large carriers)
chain: SGGAIYWPVEQFIAFMAVGK
notes: as for B1
With B16, the “% inhibition of phage binding” value in experiment [12] was around 20%.

B17: peptide-phage clone 23A3.5 (g8 display) (peptide, not shown: large carriers)
chain: SGGAIYMPVEQFIAFMAVGK
notes: as for B1
On to B17, for which, in experiment [12], the “% inhibition of phage binding” value is around 20%.

B18: BP3-108 (peptide)
peptide: suc-IPVSPDWFVCQ-NH2
modifications: reading uncertain
notes: also called phage parent t4H3.9
On to B18, for which the IC50 in [10] turned out to be 20000 nM.

B19: 4D3.9 (peptide)
peptide displayed on M13 phage as a fusion to g8p: ETVANCDCYMDLCLCYGSDR
modifications: not fully specified (bridges); cysteine pairing not given here; also: displayed on phage as g8p fusion
notes: whole phage particle in the assay; also called peptide-phage clone 4D3.9 (g8 display)
Turning to B19, in [13], the binding result is reported as “binds”.

B20: peptide-phage clone 4B3.4 (g8 display) (peptide, not shown: large carriers)
chain: DMGVCADGPWMYVCEWTE
notes: as for B1
As to B20, in [3], the binding result was “binds”.

B21: peptide-phage clone 4C3.2 (g8 display) (peptide, not shown: large carriers)
chain: ELDGWVCIKVGEQNLCYLAE
modifications: not fully specified (bridges); cysteine pairing not given here; also: polyvalent display on M13 phage, fused via linker to g8p
notes: as for B1
Consider B21, for which the binding result in experiment [13] is given as “binds”.
